Results as given in US5863775A, “Control of parasites” (The University of Leeds, priority 1994, dated 1999).
Where a SMILES comes first, the peptide text is derived from it. [ ]: non-standard residue; d: D form. The star is where a group is joined. Sta = CC(C)C[C@H](N)[C@@H](O)CC(=O)O; Isovaleryl = CC(C)CC(=O)*

How the values were obtained:
[1] = system: Caenorhabditis elegans; test: C. elegans feeding trials on cystatin-supplemented medium; type: in vivo; details: for larvae that achieved normal development to adulthood: hatched and left to develop on supplemented media; for larvae that completed development: hatched on supplemented media, then transferred to normal media; for mean eggs laid per hermaphrodite: hermaphrodites on supplemented plates, 2.5 mg 1^-1, ten replicates
Protocol: Caenorhabditis elegans was cultured on NGM agar carrying a lawn of OP50 E. coli as described by Wood (1988). Populations were maintained for 5 days after which time an agar plug from the colony plate was inserted onto fresh media. When required, the Oc-I (see Example 6) or BSA was added to the cooled medium to a final concentration of 2.5 mg 1^-1 just before polymerisation. Single nematodes were transferred from non-supplemented solid agar plates to plates containing Oc-I or BSA.
Feeding trials were set-up using C. elegans to examine the effect of Oc-I on nematode survival and growth. As soon as hermaphrodites became apparent on normal agar they were transferred to individual plates containing either Oc-I or BSA and egg laying was observed. Ten replicates were carried out for each condition.
Subsequently the larvae hatched under normal conditions were removed to media supplemented with either Oc-I or BSA. 50 larvae were removed at 6 h, 12 h, 24 h and 30 h (corresponding to the four larval stages L1, L2, L3 and L4 respectively).
Larvae of C. elegans were transferred to agar plates with E. coli in which the medium was supplemented with 0-10 mg/L of Oc-I and the subsequent mortality of the animals during feeding was estimated from activity of the animals.

[2] = system: Ascaridia galli; test: Ascaridia galli worms held in vitro for 4 days with maize inhibitor
Protocol: 35 day old Ascaridia were removed from the host and thoroughly rinsed with 0.9% (w/v) NaCl in distilled water before transfer to 3 cm plastic Petri-dishes containing basic culture medium: CaCl2 2H2 O (0.24 mg/ml), Na2 HCO, (0.2 mg/ml), NaCl (9.0 mg/ml) and D-glucose. (1 mg/ml). Streptomycin sulphate (100 mg) and penicillin (60 u) were included to reduce microbial contamination.
Three treatments of five replicates containing 4 worms each were used to assess the potency, of the maize inhibitor. Each treatment was carried out in the basal culture medium supplemented with:
(i) 0.5 mg/ml bovine serum albumin (BSA);
(ii) 0.5 mg/ml maize protein recovered by the batch method of which zeacystatin was estimated to be at 22 μg/ml;
(iii) no supplement to the medium.
The worms were kept for 4 days in the dark at 37° C. and solutions changed daily. Zeacystatin concentration was estimated using a papain inhibition assay as previously and by comparison of the inhibition derived from the batch method with that achieved for the zeacystatin obtained by affinity chromatography earlier.

[3] = system: Ascaridia galli cysteine protease; test: Inhibition of cysteine protease fraction from Ascaridia galli; type: biochemical
[4] = system: Ascaripain from Ascaris suum; test: Sensitivity of Ascaripain to protease inhibitors; type: biochemical
Excerpt: Ascaripain from Ascaris suum is similar to Ascaridia cysteine protease. Both prefer hydrolysis of Z-Phe-Arg-aminomethylcoumarin and both have limited action on Z-Phe-Arg-Arg-aminomethylcoumarin and Bz-Arg-aminomethylcoumarin. […] Pepstatin and serine protease inhibitors have no effect.

[5] = system: RH strain Toxoplasma gondii in MDBK cells; test: Toxoplasma gondii growth in MDBK cell culture; type: cell-based; details: 24 hours
Protocol: Tachyzoites of T. gondii were produced by intraperitoneal passage in Tuck's Number 1 outbred mice, approximately 10^7 parasites are injected intra-peritoneally and parasites for culture were harvested three days later by peritoneal lavage with F12 medium and used immediately.
MDBK cells were plated onto 13 mm cover-slip cultures at a density of 1×10^5 per cover slip and incubated overnight in HAM's F12 medium (GIBCO) plus 10% foetal calf serum at 37° C. Tachyzoites of RH strain Toxoplasma gondii (2×10^6) were loaded onto each cover slip and incubated for 4 hours at 37° C. to allow invasion of the DBK cells. Cultures were then washed with F12 medium to remove extracellular parasites and the inhibitor was added at a concentration of 0, 30 or 120 μg/ml. The cultures were incubated for a further 24 hours at 37° C. and then removed, washed with PBS, fixed with Bouin's solution and stained with Geimsa. Parasite growth was assessed by scoring approximately 200 cells for the number of infected cells and the total number of parasites in the sample.

[6] = 30 h on normal media (L4) before transfer to supplemented media

## bovine serum albumin [BSA, reference compound]
[1]
  larvae that achieved normal development to adulthood: 95%
  larvae that completed development: 96.0%
  mean eggs laid per hermaphrodite: 300
[1]; hatched from eggs laid on supplemented media, transferred to normal media
  juveniles developing into adult nematodes: All
[2]; 0.5 mg/ml supplement in basic medium (maize protein: zeacystatin estimated 22 μg/ml), 4 days, dark, 37° C., scale 0 (dead) to 3 (frequently active)
  Activity Score of A. galli: 2.75 ± 0.35
[2]; 0.5 mg/ml supplement, 4 days at 37° C.
  state of worms in culture: remained active for 4 days

## CC(C)C[C@H](NC(=O)[C@H]1O[C@@H]1C(=O)O)C(=O)NCCCCN=C(N)N [E64]
[3]
  sensitivity of Ascaridia cysteine protease to inhibitor: highly sensitive
[3]; 10 μM E64, pre-incubated 20 min at 37° C., Z-Phe-Arg-β-napthylamine, FIG. 6
  inhibition of proteolytic activity of protease from Ascaridia galli: over 90%
[4]
  sensitivity of Ascaripain from Ascaris suum to inhibitor: highly sensitive

## CC(C)CC(=O)N[C@H](C(=O)N[C@H](C(=O)N[C@@H](CC(C)C)[C@@H](O)CC(=O)N[C@@H](C)C(=O)N[C@@H](CC(C)C)[C@@H](O)CC(=O)O)C(C)C)C(C)C [Pepstatin] (Isovaleryl-VV[Sta]A[Sta]-OH)
[3]
  sensitivity of Ascaridia cysteine protease to inhibitor: no effect
[4]
  sensitivity of Ascaripain from Ascaris suum to inhibitor: no effect

B1: Oc-I: oryzacystatin I, rice cystatin cloned from Oryza sativa L. japonica, expressed in E. coli with six N-terminal histidine residues (protein, UniProt P09229 27-140, looked up)
Cysteine proteinase inhibitor …: EAHRAGGEGEEKMSSDGGPVLGGVEPVGNENDLHLVDLARFAVTEHNKKANSLLEFEKLVSVKQQVVAGTLYYFTIEVKEGDAKKLYEAKVWEKPWMDFKELQEFKPVDASANA
modifications: N-terminal His6 tag
notes: oryzacystatin I, rice cystatin cloned from Oryza sativa L. japonica, expressed in E. coli with six N-terminal histidine residues
[5]; 30 μg/ml
  number parasites/cell: 6.3 ± 0.63
[5]; 30 μg/ml, listed as Inhibitor
  % cells infected: 66 ± 2%
[5]; 30 μg/ml, listed as inhibitor
  % cells infected: 66±2%
[5]; 120 μg/ml, P<0.05, listed as Inhibitor
  number parasites/cell: 4.2 ± 0.17
[5]; 120 μg/ml, P<0.05, listed as inhibitor
  number parasites/cell: 4.2±0.17
[5]; 120 μg/ml, listed as Inhibitor
  % cells infected: 59 ± 0.6%
[5]; 120 μg/ml, listed as inhibitor
  % cells infected: 59±0.6%
[1]; [6]
  larvae that did not reach the adult stages: 24%
  larvae that reached adult male or hermaphrodite stages: 76%
[1]; cystatin present in the medium
  eggs hatched: Greater than 95%
[1]
  larvae that achieved normal development to adulthood: less than 2%
  larvae that completed development: 97.0%
  mean eggs laid per hermaphrodite: 300
[1]; larvae which failed to develop on Oc-I plates
  recovery of larvae after transfer to fresh unsupplemented media: failed to respond to the fresh food source and showed no signs of further development
[1]; medium supplemented with 0-10 mg/L, probit analysis, FIG. 10
  LD50 for mortality of C. elegans larvae: approximately 7 mg OcI per liter of medium
[1]; transferred 6, 12 or 24 h after hatching (L1, L2, L3) to supplemented media
  larvae developing further to the mature adult stages: none

B2: egg white cystatin: protease inhibitor of cysteine proteases (a cystatin) in chick egg white (protein, UniProt P01038 24-139, looked up)
Cystatin: SEDRSRLLGAPVPVDENDEGLQRALQFAMAEYNRASNDKYSSRVVRVISAKRQLVSGIKYILQVEIGRTTCPKSSGDLQSCEFHDEPEMAKYTTCTFVVYSIPWLNQIKLLESKCQ
[3]
  sensitivity of Ascaridia cysteine protease to inhibitor: highly sensitive
[4]
  sensitivity of Ascaripain from Ascaris suum to inhibitor: highly sensitive
